Patent US9708383 (Novo Nordisk, dated 2017)
*1 amine or outer side, *2 acyl side, *3 side chain or, on linkers, in order; H or OH if unused. Where no end group is shown, it is not given here. Side-chain parts run from the residue outwards. [ ]: non-standard residue; d: D form. The star is where a group is joined. Decanoyl(10-(4-HOOC-PhO)) = O=C(O)c1ccc(OCCCCCCCCCC(=O)*)cc1; γGlu = O=C(O)[C@H](CCC(=O)[*:2])N[*:1]; Hexanoyl(6-Ph) = O=C(CCCCCc1ccccc1)*; C12 diacid = O=C(O)CCCCCCCCCCC(=O)*; 13‑carboxytridecanoyl = C14 diacid; AEEA = NCCOCCOCC(=O)O; Aib = CC(C)(N)C(=O)O; Ahx = NCCCCCC(=O)O

Tests used:
human GLP-1 receptor [1] = target: T1, human GLP-1 receptor (human, UniProt P43220 24-463); test: SPA, 2.0% vs 0.005% HSA
T1 construct: whole, on cells; Used as purified membranes of the transfected hamster cells, not whole cells; also called hGLP-1
Method: (§1) A shift in the binding affinity, $IC50$, is an indication that the derivative in question binds to albumin, and thereby a prediction of a potential protracted pharmacokinetic profile of the derivative in question in animal models.
(§2) 25 ul (microliter) of test compounds are added to Optiplate. HSA ("high albumin" experiment containing 2% HSA), or buffer ("low albumin" experiment containing 0.005% HSA), was added (50 ul). 5-10 µg protein/sample was added (50 ul) corresponding to 0.1-0.2 mg protein/ml (to be preferably optimised for each membrane preparation). SPA-particles (Wheatgerm agglutinin SPA beads, Perkin Elmer, #RPNQ0001) were added in an amount of 0.5 mg/well (50 ul). […] The plates were sealed with PlateSealer and incubated for 120 minutes at 30° C. while shaking. The plates were centrifuged (1500 rpm, 10 min) and counted in Topcounter.

human GLP-1 receptor [2] = target: T1, human GLP-1 receptor; test: SPA, displacement of 125I-GLP-1(7-36)NH2, 0.005% HSA
Method: as §1, §2

H[Aib]EGTFTSDVSK([AEEA-AEEA-γGlu-Decanoyl(10-(4-HOOC-PhO))])YLEEQAAK([AEEA-AEEA-γGlu-Decanoyl(10-(4-HOOC-PhO))])EFIAWLVQGRG [GLP-1 derivative of Example 2: [Aib8,Lys18,Glu22,Gln34]-GLP-1-(7-37)-peptide]
ratio IC50 high HSA/IC50 low HSA (human GLP-1 receptor [1]): > 1 | IC50 (human GLP-1 receptor [2]): < 1000 nM

H[Aib]EGTFTSDVSK([AEEA-AEEA-γGlu-Decanoyl(10-(4-HOOC-PhO))])YLEEQAVREFIAK([AEEA-AEEA-γGlu-Decanoyl(10-(4-HOOC-PhO))])LVRGRG [GLP-1 derivative of Example 76: [Aib8,Lys18,Glu22,Val25,Arg26,Lys31,Arg34]-GLP-1-(7-37)-peptide]
ratio IC50 high HSA/IC50 low HSA (human GLP-1 receptor [1]): > 1 | IC50 (human GLP-1 receptor [2]): < 1000 nM

B1: GLP-1 derivative of Example 115: [Aib8,Lys18,Arg34]-GLP-1-(7-37)-peptide (peptide)
peptide: HXEGTFTSDVSKYLEGQAAKEFIAWLVRGRG
modifications: Aib8; Lys18 and Lys26 each Nε-acylated with 10-(4-carboxyphenoxy)decanoyl-OEG-OEG-gGlu
ratio IC50 high HSA/IC50 low HSA (human GLP-1 receptor [1]): > 1 | IC50 (human GLP-1 receptor [2]): < 1000 nM

H[Aib]EGTFTSDVSK([AEEA-AEEA-γGlu-13‑carboxytridecanoyl])YLEEQAAREFIK([AEEA-AEEA-γGlu-13‑carboxytridecanoyl])WLVRGRG [GLP-1 derivative of Example 51: [Aib8,Lys18,Glu22,Arg26,Lys30,Arg34]-GLP-1-(7-37)-peptide]
ratio IC50 high HSA/IC50 low HSA (human GLP-1 receptor [1]): > 1 | IC50 (human GLP-1 receptor [2]): < 1000 nM

H[Aib]EGTFTSDVSK([AEEA-AEEA-γGlu-Decanoyl(10-(4-HOOC-PhO))])YLEEQAVRK([AEEA-AEEA-γGlu-Decanoyl(10-(4-HOOC-PhO))])FIAWLVQGRG [GLP-1 derivative of Example 41: [Aib8,Lys18,Glu22,Val25,Arg26,Lys27,Gln34]-GLP-1-(7-37)-peptide]
ratio IC50 high HSA/IC50 low HSA (human GLP-1 receptor [1]): > 1 | IC50 (human GLP-1 receptor [2]): < 1000 nM

B2: GLP-1 derivative of Example 108: [Aib8,Lys18,Arg34]-GLP-1-(7-37)-peptide (peptide)
peptide: HXEGTFTSDVSKYLEGQAAKEFIAWLVRGRG
modifications: Aib8; Lys18 and Lys26 each Nε-acylated with 11-carboxyundecanoyl-gGlu-gGlu-OEG-OEG
ratio IC50 high HSA/IC50 low HSA (human GLP-1 receptor [1]): > 1 | IC50 (human GLP-1 receptor [2]): < 1000 nM

H[Aib]EGTFTSDVSK([AEEA-AEEA-γGlu-13‑carboxytridecanoyl])YLEEQAAREFIAK([AEEA-AEEA-γGlu-13‑carboxytridecanoyl])LVRGRG [GLP-1 derivative of Example 73: [Aib8,Lys18,Glu22,Arg26,Lys31,Arg34]-GLP-1-(7-37)-peptide]
ratio IC50 high HSA/IC50 low HSA (human GLP-1 receptor [1]): > 1 | IC50 (human GLP-1 receptor [2]): < 1000 nM

H[Aib]EGTFTSDVSK([AEEA-AEEA-γGlu-Decanoyl(10-(4-HOOC-PhO))])YLEEQAAREFIAWLVRGRK([AEEA-AEEA-γGlu-Decanoyl(10-(4-HOOC-PhO))]) [GLP-1 derivative of Example 1: [Aib8,Lys18,Glu22,Arg26,Arg34,Lys37]-GLP-1-(7-37)-peptide]
ratio IC50 high HSA/IC50 low HSA (human GLP-1 receptor [1]): > 1 | IC50 (human GLP-1 receptor [2]): < 1000 nM

B3: GLP-1 derivative of Example 103: [Aib8,Lys18,Arg34]-GLP-1-(7-37)-peptide (peptide)
peptide: HXEGTFTSDVSKYLEGQAAKEFIAWLVRGRG
modifications: Aib8; Lys18 and Lys26 each Nε-acylated with 13-carboxytridecanoyl-gGlu-gGlu-OEG-OEG
ratio IC50 high HSA/IC50 low HSA (human GLP-1 receptor [1]): > 1 | IC50 (human GLP-1 receptor [2]): < 1000 nM

H[Aib]EGTFTSDVSK([AEEA-AEEA-γGlu-γGlu-γGlu-13‑carboxytridecanoyl])YLEEQAVREFIAK([AEEA-AEEA-γGlu-γGlu-γGlu-13‑carboxytridecanoyl])LVRGRG [GLP-1 derivative of Example 102: [Aib8,Lys18,Glu22,Val25,Arg26,Lys31,Arg34]-GLP-1-(7-37)-peptide]
ratio IC50 high HSA/IC50 low HSA (human GLP-1 receptor [1]): > 1 | IC50 (human GLP-1 receptor [2]): < 1000 nM

H[Aib]EGTFTSDVSK([AEEA-AEEA-γGlu-13‑carboxytridecanoyl])YLEEQAAK([AEEA-AEEA-γGlu-13‑carboxytridecanoyl])EFIAWLVRGRG [GLP-1 derivative of Example 100: [Aib8,Lys18,Glu22,Arg34]-GLP-1-(7-37)-peptide]
ratio IC50 high HSA/IC50 low HSA (human GLP-1 receptor [1]): > 1 | IC50 (human GLP-1 receptor [2]): < 1000 nM

H[Aib]EGTFTSDVSK([AEEA-AEEA-γGlu-13‑carboxytridecanoyl])YLEEQAVREFIAK([AEEA-AEEA-γGlu-13‑carboxytridecanoyl])LVRGRG [GLP-1 derivative of Example 74: [Aib8,Lys18,Glu22,Val25,Arg26,Lys31,Arg34]-GLP-1-(7-37)-peptide]
ratio IC50 high HSA/IC50 low HSA (human GLP-1 receptor [1]): > 1 | IC50 (human GLP-1 receptor [2]): < 1000 nM

H[Aib]EGTFTSDVSK([AEEA-AEEA-γGlu-Decanoyl(10-(4-HOOC-PhO))])YLEEQAAREFIAK([AEEA-AEEA-γGlu-Decanoyl(10-(4-HOOC-PhO))])LVRGRG [GLP-1 derivative of Example 3: [Aib8,Lys18,Glu22,Arg26,Lys31,Arg34]-GLP-1-(7-37)-peptide]
ratio IC50 high HSA/IC50 low HSA (human GLP-1 receptor [1]): > 1 | IC50 (human GLP-1 receptor [2]): < 1000 nM

H[Aib]EGTFTSDVSK([AEEA-AEEA-γGlu-Decanoyl(10-(4-HOOC-PhO))])YLEEQAAK([AEEA-AEEA-γGlu-Decanoyl(10-(4-HOOC-PhO))])EFIAWLVRGRG [GLP-1 derivative of Example 88: [Aib8,Lys18,Glu22,Arg34]-GLP-1-(7-37)-peptide]
ratio IC50 high HSA/IC50 low HSA (human GLP-1 receptor [1]): > 1 | IC50 (human GLP-1 receptor [2]): < 1000 nM

H[Aib]EGTFTSDVSKYLEGQAAVKFIAWLVRGRG (not fully specified (residues 12, 21), also called Chem. 87) [GLP-1 derivative of Example 68: [Aib8,Lys18,Val26,Lys27,Arg34]-GLP-1-(7-37)-peptide]
ratio IC50 high HSA/IC50 low HSA (human GLP-1 receptor [1]): > 1 | IC50 (human GLP-1 receptor [2]): < 1000 nM

H[Aib]EGTFTSDVSK([AEEA-AEEA-γGlu-Decanoyl(10-(4-HOOC-PhO))])YLEGQAAK([AEEA-AEEA-γGlu-Decanoyl(10-(4-HOOC-PhO))])EFIAWLVQGRG [GLP-1 derivative of Example 92: [Aib8,Lys18,Gln34]-GLP-1-(7-37)-peptide]
ratio IC50 high HSA/IC50 low HSA (human GLP-1 receptor [1]): > 1 | IC50 (human GLP-1 receptor [2]): < 1000 nM

B4: GLP-1 derivative of Example 93: [Aib8,Lys18,Arg34]-GLP-1-(7-37)-peptide (peptide)
peptide: HXEGTFTSDVSKYLEGQAAKEFIAWLVRGRG
modifications: Aib8; Lys18 and Lys26 each Nε-acylated with 10-(4-carboxyphenoxy)decanoyl-gGlu-OEG-OEG
ratio IC50 high HSA/IC50 low HSA (human GLP-1 receptor [1]): > 1 | IC50 (human GLP-1 receptor [2]): < 1000 nM

H[Aib]EGTFTSDVSK([AEEA-AEEA-γGlu-13‑carboxytridecanoyl])YLEGQAVREFIAK([AEEA-AEEA-γGlu-13‑carboxytridecanoyl])LVRGRG [GLP-1 derivative of Example 112: [Aib8,Lys18,Val25,Arg26,Lys31,Arg34]-GLP-1-(7-37)-peptide]
ratio IC50 high HSA/IC50 low HSA (human GLP-1 receptor [1]): > 1 | IC50 (human GLP-1 receptor [2]): < 1000 nM

HAEGTFTSDVSK([AEEA-AEEA-γGlu-2‑(4-(4-fluorophenoxy)phenyl)acetyl])YLEK([AEEA-AEEA-γGlu-2‑(4-(4-fluorophenoxy)phenyl)acetyl])QAAREFIAWLVQGRG [GLP-1 derivative of Example 120: [Lys18,Lys22,Arg26,Gln34]-GLP-1-(7-37)-peptide]
ratio IC50 high HSA/IC50 low HSA (human GLP-1 receptor [1]): > 1 | IC50 (human GLP-1 receptor [2]): < 1000 nM

HAEGTFTSDVSK([AEEA-AEEA-γGlu-13‑carboxytridecanoyl])YLEEQAVREFIAK([AEEA-AEEA-γGlu-13‑carboxytridecanoyl])LVRGRG-NH2 [GLP-1 derivative of Example 133: [Lys18,Glu22,Val25,Arg26,Lys31,Arg34]-GLP-1-(7-37)-peptide amide]
ratio IC50 high HSA/IC50 low HSA (human GLP-1 receptor [1]): > 1 | IC50 (human GLP-1 receptor [2]): < 1000 nM

HAEGTFTSDVSK([AEEA-AEEA-γGlu-2‑(2-(trifluoromethyl)phenyl)acetyl])YLEK([AEEA-AEEA-γGlu-2‑(2-(trifluoromethyl)phenyl)acetyl])QAAREFIAWLVQGRG [GLP-1 derivative of Example 125: [Lys18,Lys22,Arg26,Gln34]-GLP-1-(7-37)-peptide]
ratio IC50 high HSA/IC50 low HSA (human GLP-1 receptor [1]): > 1 | IC50 (human GLP-1 receptor [2]): < 1000 nM

HAEGTFTSDVSK([AEEA-AEEA-γGlu-Ahx-γGlu-Hexanoyl(6-Ph)])YLEGQAAK([AEEA-AEEA-γGlu-Ahx-γGlu-Hexanoyl(6-Ph)])EFIAWLVRGRG [GLP-1 derivative of Example 129: [Lys18,Arg34]-GLP-1-(7-37)-peptide]
ratio IC50 high HSA/IC50 low HSA (human GLP-1 receptor [1]): > 1 | IC50 (human GLP-1 receptor [2]): < 1000 nM

HAEGTFTSDVSK([AEEA-AEEA-γGlu-C12 diacid])YLEEQAVREFIAK([AEEA-AEEA-γGlu-C12 diacid])LVRGRG [GLP-1 derivative of Example 124: [Lys18,Glu22,Val25,Arg26,Lys31,Arg34]-GLP-1-(7-37)-peptide]
ratio IC50 high HSA/IC50 low HSA (human GLP-1 receptor [1]): > 1 | IC50 (human GLP-1 receptor [2]): < 1000 nM

HAEGTFTSDVSK([AEEA-AEEA-γGlu-γGlu-13‑carboxytridecanoyl])YLEK([AEEA-AEEA-γGlu-γGlu-13‑carboxytridecanoyl])QAAREFIAWLVQGRG [GLP-1 derivative of Example 126: [Lys18,Lys22,Arg26,Gln34]-GLP-1-(7-37)-peptide]
ratio IC50 high HSA/IC50 low HSA (human GLP-1 receptor [1]): > 1 | IC50 (human GLP-1 receptor [2]): < 1000 nM
